Assay results reported in patent US20110123447A1 (UNIVERSITY OF ZURICH, published 2011).
Several values for one entry are separate records, joined by “and”; a condition that tells them apart may be missing. Identical values can stand only once.

Columns and labels:
NY-ESO-1 11-30 peptide [1] = biological target: T1, NY-ESO-1 11-30 peptide (human); assay: saturation ELISA on coated NY-ESO-1 11-30 peptide
T1 construct: also called peptide spanning amino acids 11 to 30 of NY-ESO-1
T1 peptide: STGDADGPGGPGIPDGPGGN

NY-ESO-1 11-30 peptide [2] = biological target: T1, NY-ESO-1 11-30 peptide; assay: competition ELISA: soluble NY-ESO-1 11-30 peptide against plate bound peptide
Experimental: The avidity of Manhattan was determined by competition ELISA using increasing concentrations of soluble NY-ESO-1₁₁₋₃₀ peptide to compete for the plate bound peptide. As depicted in FIG. 3C, the antigen-binding equilibrium dissociation constant (KD) of the interaction of Manhattan with its cognate peptide was in the lower nanomolar range.

[3] = biological target: T2, NY-ESO-1 as expressed in NY-ESO-1-positive mamma carcinoma tissue sections and in the cell line SK-MEL-37 (human, UniProt P78358 1-180); assay: immunohistochemistry on NY-ESO-1-positive tissue sections
T2 construct: whole, on cells; The antigen is intracellular; It was detected in fixed sections or permeabilised cells, not on the cell surface; also called NY-ESO-1-positive tissue; NY-ESO-1-positive cell line SK-MEL-37
Experimental: Immunohistochemistry was performed on formalin-fixed, paraffin-embedded tissue. Heat-based antigen retrieval was applied to all slides. Non-specific fluorescence was blocked using polyclonal rabbit anti-human IgG (Dako, Baar, Switzerland) for 30 min at room temperature followed by a second block in 1% of low fat milk (Rapilait, Migros, Switzerland) for 10 min. Primary antibody or B cell conditioned medium was incubated overnight at 4° C. […] As positive control for the presence of NY-ESO-1 antigen a mouse anti-NY-ESO-1 monoclonal antibody (Zymed, South San Francisco, USA) was used.

[4] = biological target: T3, NY-ESO-1 peptide spanning amino acids 1-20 (human, UniProt P78358 1-20); assay: epitope mapping ELISA on coated overlapping peptides
T3 construct: range 1-20; also called adjacent peptide 1-20
T3 peptide (looked up): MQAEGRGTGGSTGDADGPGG
Experimental: (§1) 20mer peptides spanning the entire NY-ESO-1 protein with 10 aa overlaps shared by each adjacent peptides (Peptides&Elephants, Nuthetal, Germany) were used to coat Maxisorp ELISA plates (Nunc, Rochester, N.Y.). Human recombinant antibody Manhattan or patient serum (diluted 1:500 in PBS) was detected using horseradish peroxidase-conjugated Goat anti-human IgG+IgM (Jackson ImmunoResearch).
(§2) To identify the epitope recognized by Manhattan on NY-ESO-1 ELISA was performed using overlapping peptides spanning the complete NY-ESO-1 protein. […] This epitope, among others was also recognized by antibodies contained in serum of patient C1 (FIG. 3B).

[5] = biological target: T4, NY-ESO-1 peptide spanning amino acids 21-40 (human, UniProt P78358 21-40); assay: as above
T4 construct: range 21-40; also called adjacent peptide 21-40
T4 peptide (looked up): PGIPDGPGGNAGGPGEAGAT
Experimental: as §1, §2

[6] = biological target: T5, full length recombinant NY-ESO-1 protein (human, UniProt P78358 1-180); assay: ELISA on coated recombinant NY-ESO-1, supernatant of transfected 293 HEK cells
T5 construct: mature; The form was set to 'mature' to stand for full length

- EC50 (NY-ESO-1 11-30 peptide [1]): 1 nM and 0.15 µg/mL
- Kd (NY-ESO-1 11-30 peptide [2]): 0.1 nM
- binding result [3]: binds
- binding result [4]: no binding
- binding result [5]: no binding
- binding result [6]: binds
B1: human monoclonal antibody Manhattan (recombinant human antibody 12D7 clone No. 4) (antibody, human IgG1, V domains shown)
VH: QVQLVQSGGGVVRPGGSLRLSCAASGFSFIDYGMSWVRQVPGKGLEWVAGMNWSGDKKGHAESVKGRFIISRDNAKNTLYLEMSSLRVEDTALYFCARGEYSNRFDPRGRGTLVTVSS
VL: DIVMTQTPLSLPVTLGQPASLSCRSSQSLVFTDGNTYLNWFQQRPGQSPRRLIYKVSSRDPGVPDRFSGTGSGTDFTLEISRVEAEDIGVYYCMQGTHWPPIFGQGTKVEIK
notes: They were cloned into vectors with the constant regions of human IgG1 heavy chain and human kappa light chain and expressed in 293 HEK cells; also called 12D7 clone number 4; 12D7.4
